Source: patent publication US20220002363A1, “COMPOSITIONS AND METHODS FOR TREATING PULMONARY DISEASE” (United States Government As Represented By The Department …, priority 2020, published 2022)

Key:
WT-sFasL = molecular target: T1, WT-sFasL (Homo sapiens, UniProt P48023); assay: Annexin-V externalization (translocation) assay in SAEC with WT:mut sFasL mixtures; assay type: cell-based; settings: WT:mut sFasL molar ratios of 1:27 and 1:81
T1 construct: made in house
T1 sequence (P48023 103-281): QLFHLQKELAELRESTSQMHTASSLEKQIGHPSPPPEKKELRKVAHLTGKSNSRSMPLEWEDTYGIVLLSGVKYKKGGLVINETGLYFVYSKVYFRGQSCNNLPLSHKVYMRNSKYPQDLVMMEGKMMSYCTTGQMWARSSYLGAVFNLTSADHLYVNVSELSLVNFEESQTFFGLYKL
Protocol: FIGS. 2A-D show the mut-sFasL has inhibitory properties. Highly Fas-sensitive Jurkat cells (FIG. 2A), primary human lung small airway epithelial cells (SAEC, FIG. 2B) or murine lung epithelial cells (LA4, FIG. 2D) were incubated with serial dilutions of mutated FasL, (mut sFasL). […] As a confirmatory test, the experiment was repeated using SAEC and an annexin-V translocation assay (FIG. 2C). WT=wild type (no mutant). […] Each dot represents individual data; lines represent means±SD. *=P<0.05; **=P<0.01, ***P<0.001 when compared to WT. One way ANOVA with SIdak's post hoc analysis. […]
Measurements of apoptotic cascade activation. Apoptotic cascade activation was assessed by determining caspase 3/7 activity and Annexin V externalization. Caspase-3/7 activity was measured using a commercial substrate (Caspase-Glo 3/7 Assay, Promega, Madison, Wis., Cat #G8090) following manufacturer's instructions. Annexin V was measured with a luminescent commercial assay that allows for measurement of annexin V externalization in adherent cells (RealTime-Glo Annexin V assay, Promega, Madison, Wis., Cat #JA1011). Luminescence was measured with a Synergy H4 Microplate Reader (BioTek, Winooski, Vt.). […]

Jurkat cells = assay: Caspase 3/7 activity in Jurkat cells (bioactivity of sFasL proteins); assay type: cell-based, human
Protocol: Jurkat cells were incubated for 5 hours with wild type (WT) sFasL or a sFasL mutant (mut sFasL) in which 8 charged amino acids were changed to alanine. Caspase 3/7 activity was measured after incubation with the caspase 3/7 substrate at room temperature for 30 minutes. Data is shown as arbitrary luminescence units. […] Each dot represents individual data. Data analyzed by 2-way ANOVA with Sidak post-hoc analysis. ** p<0.01, *** p<0.001 compared to the respective concentration of mut-sFasL.
Methods. Cells and cell culture. To test Fas responses in vitro, the highly-Fas sensitive cell line, Jurak, was used. Jurak cells are human T lymphocyte cells first isolated from the peripheral blood of a child with acute cell leukemia (Gillis S and Watson J. J Exp Med. 1980; 152(6):1709-19). Jurak cells are exquisitely sensitive to Fas ligation and are commonly used as a model cell in studies involving the Fas/FasL system; here they are used as such, rather than as a model of T-cell responses. Jurak cells (human leukemic T lymphocytes) were purchased from ATCC (Clone TIB-152) and grown at 37° C. and 5% CO2 in RPMI-1640 medium supplemented with 10% heat-inactivated fetal bovine serum. Cells were authenticated using short tandem repeat analysis. Mycoplasma status was weakly positive by PCR (Venor GeM Mycoplasma Detection Kit, Sigma-Aldrich, Cat #MP0025). The Jurak data was confirmed in primary human lung epithelial cells and the murine alveolar epithelial cell line LA4, which are described herein.
Measurements of apoptotic cascade activation. Apoptotic cascade activation was assessed by determining caspase 3/7 activity and Annexin V externalization. Caspase-3/7 activity was measured using a commercial substrate (Caspase-Glo 3/7 Assay, Promega, Madison, Wis., Cat #G8090) following manufacturer's instructions. Annexin V was measured with a luminescent commercial assay that allows for measurement of annexin V externalization in adherent cells (RealTime-Glo Annexin V assay, Promega, Madison, Wis., Cat #JA1011). Luminescence was measured with a Synergy H4 Microplate Reader (BioTek, Winooski, Vt.).
Results. Mutations of the charged amino acids in the stalk region of sFasL influence its biological activity in vitro. To test whether the structure of the stalk region of sFasL influences its biological activity, a mutant sFasL molecule (mut-sFasL) was cloned in which 8 charged amino acids in the 26 amino acid stalk region were changed to the non-charged amino acid alanine (FIG. 7). DNA sequencing data for the FasL constructs was also carried out: DNA sequence of wild type sFasL construct and eight different clones. The mutant sFasL clone used in the study is clone 1. […]

Annexin V translocation (WT-sFasL): significantly reduced
B1: mut-sFasL: mutant sFasL molecule in which 8 charged amino acids in the 26 amino acid stalk region were changed to alanine (protein)
chain: QLFALQAALAALAASTSQMATASSLAKQIGHPSPPPEKKELRKVAHLTGKSNSRSMPLEWEDTYGIVLLSGVKYKKGGLVINETGLYFVYSKVYFRGQSCNNLPLSHKVYMRNSKYPQDLVMMEGKMMSYCTTGQMWARSSYLGAVFNLTSADHLYVNVSELSLVNFEESQTFFGLYKL
bioactivity (caspase 3/7) at the highest concentration tested (Jurkat cells; 810 ng/mL): retained some bioactivity | caspase 3/7 activity (Jurkat cells; 5 hours incubation, compared to WT-sFasL): significantly reduced caspase 3/7 activity compared to WT-sFasL | activity relative to the wild-type sFasL (Jurkat cells; caspase 3/7): approximately two orders of magnitude less than the wild-type sFasL | intrinsic caspase-3/7 activation (Jurkat cells; highest dose of 2430 ng/mL (corresponds to 1:81 WT:mut molar ratio)): leads to intrinsic caspase-3/7 activation
